Key:
[1] = system: FGFR4 R388, V5-His tagged (FGFR4R388-V5-His)
[2] = system: FGFR4 G388, V5-His tagged (FGFR4G388-V5-His)

## HA-tagged MT1-MMP
[1]
  MT1-MMP tyrosine phosphorylation: repeatedly detected
[2]
  MT1-MMP tyrosine phosphorylation: repeatedly detected

Source: US20110212091
